The text below walks through data of PMC7586746, “A putative nuclear copper chaperone promotes plant immunity in Arabidopsis” (Journal of Experimental Botany, 2020).

One data set addresses T1, GST–NPR1 (UniProt P93002 1-593).
T1 construct: NPR1 (non-expressor of pathogenesis-related gene 1), cloned into pGEX-4T-1; source: E. coli BL21, purified
T1 sequence (looked up): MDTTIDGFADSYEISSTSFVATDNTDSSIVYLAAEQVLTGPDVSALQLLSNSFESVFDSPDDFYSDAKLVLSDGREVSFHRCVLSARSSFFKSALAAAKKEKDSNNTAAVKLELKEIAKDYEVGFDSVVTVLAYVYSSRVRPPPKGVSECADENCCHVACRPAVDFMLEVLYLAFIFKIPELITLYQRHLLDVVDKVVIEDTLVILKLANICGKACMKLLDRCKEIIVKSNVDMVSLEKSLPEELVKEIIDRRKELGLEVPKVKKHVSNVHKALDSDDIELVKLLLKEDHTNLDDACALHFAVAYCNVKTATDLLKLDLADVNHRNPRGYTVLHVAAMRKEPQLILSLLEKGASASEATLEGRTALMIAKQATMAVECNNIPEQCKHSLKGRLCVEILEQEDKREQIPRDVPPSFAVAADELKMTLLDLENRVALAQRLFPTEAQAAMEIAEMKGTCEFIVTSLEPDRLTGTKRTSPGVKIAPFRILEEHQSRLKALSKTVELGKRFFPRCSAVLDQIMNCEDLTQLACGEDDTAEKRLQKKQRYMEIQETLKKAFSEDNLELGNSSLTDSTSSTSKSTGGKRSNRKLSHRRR
The data set can be described thus: pull-down; GST pull-down in vitro of His-CCP and His-TGA2 added together, in the presence of Cu^2+ (Supplementary Fig. S13). The settings on record: both partners purified.

In a further data set the target is NPR1 (UniProt P93002 1-593). The data set is described as follows: EMSA; NPR1 alone; LightShift EMSA kit: 500 ng GST-tagged protein, 4 fmol biotin-LS7 probe, 20 ul with 1 ul dI-dC, 1 ul 50% glycerol, kit 10x binding buffer, 20 min, 25 C; 6% native gel; salt and pH not stated. Particulars: protein: recombinant; tags: GST (N-terminal); blunt. On the technique in general: A gel shift assay detects complexes by their altered migration in electrophoresis.

The next data set has as its target TGA2;NPR1 (Arabidopsis thaliana?;Arabidopsis …, UniProt P43273;P93002 1-330;1-593, |). The data set can be described thus: EMSA; with NPR1; substantially more probe bound than TGA2 alone; LightShift EMSA kit: 500 ng GST-tagged protein, 4 fmol biotin-LS7 probe, 20 ul with 1 ul dI-dC, 1 ul 50% glycerol, kit 10x binding buffer, 20 min, 25 C; 6% native gel; salt and pH not stated. The settings on record: protein: recombinant;recombinant; tags: GST (N-terminal);GST (N-terminal); blunt.

B1: His-TGA2 (natural protein, UniProt P43273 1-330, looked up)
chain: MADTSPRTDVSTDDDTDHPDLGSEGALVNTAASDSSDRSKGKMDQKTLRRLAQNREAARKSRLRKKAYVQQLENSRLKLTQLEQELQRARQQGVFISGTGDQAHSTGGNGALAFDAEHSRWLEEKNKQMNELRSALNAHAGDSELRIIVDGVMAHYEELFRIKSNAAKNDVFHLLSGMWKTPAERCFLWLGGFRSSELLKLLANQLEPMTERQLMGINNLQQTSQQAEDALSQGMESLQQSLADTLSSGTLGSSSSGNVASYMGQMAMAMGKLGTLEGFIRQADNLRLQTLQQMIRVLTTRQSARALLAIHDYFSRLRALSSLWLARPRE
notes: transcription factor TGA2
For B1, in the data set with GST–NPR1, the binding result is recorded as “binds”.

B2: LS7 probe (PR1 promoter) (dsDNA)
DNA 1: TATTTTACTTACGTCATAGATGTGGCGGCA
DNA 2: TGCCGCCACATCTATGACGTAAGTAAAATA
For the molecule B2, the binding result with NPR1 is on record as “no binding”; in the data set with TGA2;NPR1, “binds”.
